Reference: patent publication US20090075904A1 (CAMPINA NEDERLAND HOLDING B V, published 2009)

B1: APFPEVF (peptide)
peptide: APFPEVF
B2: LPL (peptide)
peptide: LPL
B3: HPIK (peptide)
peptide: HPIK
B4: IPI (peptide)
peptide: IPI
B5: YVPEPF (peptide)
peptide: YVPEPF
B6: EMPFPK (peptide)
peptide: EMPFPK
B7: LPVPQ (peptide)
peptide: LPVPQ
B8: GPFPIIV (peptide)
peptide: GPFPIIV
B9: LPQYL (peptide)
peptide: LPQYL
B10: PFP (peptide)
peptide: PFP
B11: KVLP (peptide)
peptide: KVLP
B12: VPLGTQ (peptide)
peptide: VPLGTQ
B13: PLLQ (peptide)
peptide: PLLQ
B14: VPYPQ (peptide)
peptide: VPYPQ
B15: MPLW (peptide)
peptide: MPLW
B16: GPFP (peptide)
peptide: GPFP
B17: PQSVLS (peptide)
peptide: PQSVLS
B18: APFPE (peptide)
peptide: APFPE
B19: LPVP (peptide)
peptide: LPVP
B20: LPVPQK (peptide)
peptide: LPVPQK
B21: LPLP (peptide)
peptide: LPLP

What follows are binders tested against T1, Dipeptidyl peptidase IV (DPP-IV) (UniProt P22411 38-766, limits assumed) (assay: cell-based or functional assay).
T1 sequence (P22411 38-766 limits assumed): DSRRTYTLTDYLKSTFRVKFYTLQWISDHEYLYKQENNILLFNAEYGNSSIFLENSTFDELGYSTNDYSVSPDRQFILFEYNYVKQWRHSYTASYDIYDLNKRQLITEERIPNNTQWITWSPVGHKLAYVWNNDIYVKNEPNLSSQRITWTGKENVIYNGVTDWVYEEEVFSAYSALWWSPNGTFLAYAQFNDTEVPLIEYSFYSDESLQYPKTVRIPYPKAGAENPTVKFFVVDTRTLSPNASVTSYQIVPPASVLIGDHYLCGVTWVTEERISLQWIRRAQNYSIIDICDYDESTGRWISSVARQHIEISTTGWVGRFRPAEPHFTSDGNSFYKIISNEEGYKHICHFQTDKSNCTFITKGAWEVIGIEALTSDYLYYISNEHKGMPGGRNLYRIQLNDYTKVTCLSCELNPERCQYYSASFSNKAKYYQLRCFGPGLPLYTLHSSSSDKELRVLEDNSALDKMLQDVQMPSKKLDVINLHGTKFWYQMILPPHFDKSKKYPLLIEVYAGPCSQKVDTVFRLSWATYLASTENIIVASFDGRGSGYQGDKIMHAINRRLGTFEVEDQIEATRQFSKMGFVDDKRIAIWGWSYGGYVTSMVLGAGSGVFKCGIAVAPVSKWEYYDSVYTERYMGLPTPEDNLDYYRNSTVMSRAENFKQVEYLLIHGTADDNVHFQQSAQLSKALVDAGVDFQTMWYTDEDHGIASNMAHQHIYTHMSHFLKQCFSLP
In the case of B1, the “IC50 of DPP-IV inhibition (estimated from relative potency)” value is reported as about 120 µM. With B2 the “IC50 of DPP-IV inhibition (estimated from relative potency)” value was about 5 µM. For B3, the “IC50 of DPP-IV inhibition (estimated from relative potency)” value was about 120 µM. In the case of B4, the “IC50 of DPP-IV inhibition (estimated from relative potency)” value is reported as about 5 µM.

Biological target: T1, Dipeptidyl peptidase IV (DPP-IV)
Assay: cell-based or functional assay
Remark: another data set of the same source
B5 was tested, and the “RELATIVE POTENCY [%] (DPP-IV inhibition assay, Gly-Pro-p-nitroanilide conversion, on-line LC-BCD-MS)” value was 20%. B6 was tested, and the “RELATIVE POTENCY [%] (DPP-IV inhibition assay, Gly-Pro-p-nitroanilide conversion, on-line LC-BCD-MS)” value was 12%. With B1 the “RELATIVE POTENCY [%] (DPP-IV inhibition assay, Gly-Pro-p-nitroanilide conversion, on-line LC-BCD-MS)” value was 6%. For B7, the “RELATIVE POTENCY [%] (DPP-IV inhibition assay, Gly-Pro-p-nitroanilide conversion, on-line LC-BCD-MS)” value was 28%. For B8, the “RELATIVE POTENCY [%] (DPP-IV inhibition assay, Gly-Pro-p-nitroanilide conversion, on-line LC-BCD-MS)” value was 9%. B9 was tested, and the “RELATIVE POTENCY [%] (DPP-IV inhibition assay, Gly-Pro-p-nitroanilide conversion, on-line LC-BCD-MS)” value was 26%. B2 was tested, and the “RELATIVE POTENCY [%] (DPP-IV inhibition assay, Gly-Pro-p-nitroanilide conversion, on-line LC-BCD-MS)” value was 100%. B10 was tested, and the “RELATIVE POTENCY [%] (DPP-IV inhibition assay, Gly-Pro-p-nitroanilide conversion, on-line LC-BCD-MS)” value was 20%. In the case of B11, the “RELATIVE POTENCY [%] (DPP-IV inhibition assay, Gly-Pro-p-nitroanilide conversion, on-line LC-BCD-MS)” value is reported as 98%. In the case of B12, the “RELATIVE POTENCY [%] (DPP-IV inhibition assay, Gly-Pro-p-nitroanilide conversion, on-line LC-BCD-MS)” value is reported as 55%. For B13, the “RELATIVE POTENCY [%] (DPP-IV inhibition assay, Gly-Pro-p-nitroanilide conversion, on-line LC-BCD-MS)” value was 37%. For B14, the “RELATIVE POTENCY [%] (DPP-IV inhibition assay, Gly-Pro-p-nitroanilide conversion, on-line LC-BCD-MS)” value was 51%. B15 was tested, and the “RELATIVE POTENCY [%] (DPP-IV inhibition assay, Gly-Pro-p-nitroanilide conversion, on-line LC-BCD-MS)” value was 23%. In the case of B3, the “RELATIVE POTENCY [%] (DPP-IV inhibition assay, Gly-Pro-p-nitroanilide conversion, on-line LC-BCD-MS)” value is reported as 6%. In the case of B16, the “RELATIVE POTENCY [%] (DPP-IV inhibition assay, Gly-Pro-p-nitroanilide conversion, on-line LC-BCD-MS)” value is reported as 34%. In the case of B17, the “RELATIVE POTENCY [%] (DPP-IV inhibition assay, Gly-Pro-p-nitroanilide conversion, on-line LC-BCD-MS)” value is reported as 20%. B4 was tested, and the “RELATIVE POTENCY [%] (DPP-IV inhibition assay, Gly-Pro-p-nitroanilide conversion, on-line LC-BCD-MS)” value was 100%. In the case of B18, the “RELATIVE POTENCY [%] (DPP-IV inhibition assay, Gly-Pro-p-nitroanilide conversion, on-line LC-BCD-MS)” value is reported as 9%. With B19 the “RELATIVE POTENCY [%] (DPP-IV inhibition assay, Gly-Pro-p-nitroanilide conversion, on-line LC-BCD-MS)” value was 15%. With B20 the “RELATIVE POTENCY [%] (DPP-IV inhibition assay, Gly-Pro-p-nitroanilide conversion, on-line LC-BCD-MS)” value was 63%. With B21 the “RELATIVE POTENCY [%] (DPP-IV inhibition assay, Gly-Pro-p-nitroanilide conversion, on-line LC-BCD-MS)” value was 11%.
